Test results published in patent publication US8835136B2, “Engineered amine dehydrogenases and methods of use thereof” (Georgia Tech Research Corporation, priority 2012, dated 2014).
Positions count from the first letter of the chain named. Names and notes keep the numbering of the source. Values after ≈ are worked out from the molar mass of the structure shown.

Legend:
[1] = Solubility of PFPA substrate; type: physicochemical
Protocol: The enzyme tolerates acetone concentrations as high as 20% v/v. The PFPA substrate has a limited solubility of 40 mM in aqueous media, but was increased to 60 mM with the addition of acetone.

[2] = Reductive amination, spectrophotometric assay at 340 nm; type: biochemical; settings: for Reductive amination specific activity: maximum specific activity, nonlinear fit
Protocol: (§1) Activity of purified proteins was measured using a spectrophotometric assay at 340 nm, corresponding to the cofactor nicotinamide adenine dinucleotide (NADH, ε340=6220 M^−1 cm^−1) (Dawson, et al., Clarendon Press, (1989). For reductive amination, reactions took place in 500 mM NH4Cl/NH4OH at pH 9.6, with 200 μM NADH and 20 mM of the ketone substrate, unless otherwise specified. For oxidative deamination, reactions took place in 0.1 M NaHCO3/Na2CO3 buffer at pH 10.0, with 1 mM NAD+ with 10 mM of the amine substrate of interest. All reactions were performed at 25° C. unless otherwise specified. Enzyme was added in 10 μL aliquots in dilute concentrations. Enzyme concentrations varied upon activity levels with the substrate present, but were dilute enough to ensure linear conversion kinetics over the analytical time period (10 min to 30 min). Specific activities were then calculated from the stoichiometric conversion of cofactor as determine by the change in absorbance at 340 nm over time.

[3] = Native leucine dehydrogenase activity; type: biochemical
Protocol: as §1

[4] = Oxidative deamination, spectrophotometric assay at 340 nm; type: biochemical; settings: for Oxidative deamination specific activity: maximum specific activity, 1,3-DMBA
Protocol: as §1, with “For oxidative deamination, reactions took place in 0.1 M NaHCO3/Na2CO3 buffer at pH 10.0, with 1 mM NAD+ with 10 mM of the amine substrate of interest.” left out

[5] = as above; type: biochemical
Protocol: as §1, with “For oxidative deamination, reactions took place in 0.1 M NaHCO3/Na2CO3 buffer at pH 10.0, with 1 mM NAD+ with 10 mM of the amine substrate of interest.” left out
The enantioselectivity was initially estimated by measuring the deamination activity toward individual enantiomers of methylbenzylamine (MBA). […] A preference towards (R)-MBA over the corresponding (S)-enantiomer was evident in the discrepancies between the deamination activities of 0.586 U mg^−1 and 0.002 U mg^−1, respectively. These preliminary results were corroborated through direct measurement of the enantioselectivity of the MIBK amination in producing chiral 1,3-DMBA.

[6] = Conversion with GDH cofactor recycle system (LeuDH-AmDH); type: biochemical; settings: 10 mM MIBK
Protocol: Initial rate kinetic measurements are used primarily in the determination of kinetic parameters to avoid second-order effects and product inhibition. The enzyme's ability to reach complete substrate conversion cannot be determined from these initial rate experiments, and was instead evaluated by chiral GC of overnight conversion with a GDH recycle system. The GDH regenerates the expensive NADH by redox reaction of NAD+ and inexpensive glucose (FIG. 1). In 1.5 mL reactions, replicates containing 10 mM MIBK substrate was mixed with an excess of 12 mM glucose, 10 U GDH, and a catalytic amount of NADH (200 μM). Histag purified K67S/E113V/N261L/V290C LeuDH-AmDH (0.13 mg) was added to each reaction and allowed to convert for 18 hours. An additional 0.13 mg of enzyme was then added and allowed to react for 10 hours to achieve the maximum conversion. One mL aliquots of the final reaction media were adjusted to pH>13 by the addition of 100 μL of 10 N NaOH and derivatized in toluene according to the TFAA protocol.
The product amine was additionally confirmed through ^1H NMR. A 175 mL-scale amination reaction with GDH cofactor recycle was performed similar to previous conversion experiments. […] Following separation, the solvent was removed through rotovap distillation, and the purified product was analyzed by ^1H NMR. […]

[7] = purified LeuDH library 10/11 hits

Molecule `CC(=O)Cc1ccc(F)cc1` [PFPA, para-fluoro phenyl acetone] has a solubility ([1]; aqueous media) of 40 mM (≈ 6090 µg/mL) and a solubility ([1]; aqueous media with added acetone, aqueous with cosolvent or surfactant or cyclodextrin, with the addition of acetone) of 60 mM (≈ 9130 µg/mL).

B1: WT: LeuDH from Bacillus stearothermophilus, SEQ ID NO:4 (protein, listed as Bacillus stearothermophilus)
chain: ELFQYMEKYDYEQVLFCQDKESGLKAIIVIHDTTLGPALGGTRMWMYNSEEEALEDALRLARGMTYKNAAAGLNLGGGKTVIIGDPRKDKNEAMFRAFGRFIQGLNGRYITAEDVGTTVADMDIIYQETDYVTGISPEFGSSGNPSPATAYGVYRGMKAAAKEAFGSDSLEGKVVAVQGVGNVAYHLCRHLHEEGAKLIVTDINKEAVARAVEEFGAKAVDPNDIYGVECDIFAPCALGGIINDQTIPQLKAKVIAGSADNQLKEPRHGDMIHEMGIVYAPDYVINAGGVINVADELYGYNRERAMKKIEQIYDNIEKVFAIAKRDNIPTYVAADRMAEERIETMRKARSQFLQNGHHILSRRRAR
In the case of B1, the “activity for reductive amination” value ([2]; MIBK) is reported as “no measurable activity”, the “Reductive amination specific activity” value ([2]; MIBK) is reported as “n.m.^[c]” and the “native activity toward 1-Leu” value [3] is reported as 112 U mg^−1. The “Oxidative deamination specific activity” value [4] was “n.m”.

B2: K67S/E113V/N261L/V290C: LeuDH-AmDH quadruple variant, SEQ ID NO:10, library 11 (protein)
chain: B1 chain with M64S, K67M, E113V, N261L, V290C
For B2, the “deamination activity toward (R)-MBA” value [5] was 0.586 U mg^−1, the “deamination activity toward (S)-MBA” value [5] was 0.002 U mg^−1 and the “Specific activity, (R)-MBA” value ([5]; 20 mM substrate) was 586.3 mU mg^−1 protein. For the same molecule, the “Specific activity, (S)-MBA” value ([5]; 20 mM substrate) was 1.6 mU mg^−1 protein, the “Specific activity, acetophenone” value ([2]; 20 mM substrate) was 58.8 mU mg^−1 protein and the “Specific activity, cyclohexanone” value ([2]; 20 mM substrate) was 123.4 mU mg^−1 protein. The “Specific activity, ethyl pyruvate” value ([2]; 20 mM substrate) was 13.2 mU mg^−1 protein, the “Specific activity, ethyl-3-oxohexanoate” value ([2]; 20 mM substrate) was 14.0 mU mg^−1 protein and the “Specific activity, methyl acetoacetate” value ([2]; 20 mM substrate) was 4.5 mU mg^−1 protein. For the same molecule, the kcat ([2]; MIBK amination) was 0.46 s⁻¹, the Km ([2]; MIBK substrate, read-out: KM (reductive amination)) was 15.1 mM and the amination activity ([2]; MIBK, non-linear Michaelis-Menten fit) was 0.69 U mg^−1. The “Reductive amination specific activity” value ([2]; MIBK) was 0.690 U mg^−1 protein, the “Amination of MIBK Vmax” value [2, 7] was 0.331 ± 0.07 and the Km ([2]; purified LeuDH library 10/11 hits, read-out: Amination of MIBK KM) was 18.7 ± 11.7 mM. For the same molecule, the average substrate conversion ([6]; 1.5 mL, 18 h + 10 h, chiral GC) was 92.5%, the conversion ([6]; 175 mL-scale, 48 hours) was 84.7% and the “Specific activity, cyclohexylamine” value ([4]; 20 mM substrate) was 56.0 mU mg^−1 protein. The “Specific activity, (R/S)-MBA” value ([4]; 40 mM racemic, 20 mM of each enantiomer) was 784.6 mU mg^−1 protein, the Km ([4]; 1,3-DMBA substrate, read-out: KM (oxidative deamination)) was 57.5 mM and the “Oxidative deamination specific activity” value [4] was 2.64 U mg^−1 protein. The “Deamination of 1,3-DMBA Vmax” value [4, 7] was 2.350 ± 0.26 and the Km ([4]; purified LeuDH library 10/11 hits, read-out: Deamination of 1,3-DMBA KM) was 41.9 ± 9.7 mM.
